Measurements: paper PMC3549492

How the values were obtained:
[1] = target: N-terminal HaloTag human KIF1A (amino acids 1-361) fusion protein (human) (UniProt Q12756); test: pull-down; HaloTag-Kif1a (1-361) on HaloLink magnetic beads under saturated conditions; MTs with or without full-length human Dcx; 5 μM of each protein; 4 mM ATP, ADP or AMP-PNP; supernatant and pellet, silver staining, densitometry, bound fraction P/(S+P) normalized to ATP without Dcx
[2] = target: MTs of the traditional MT pull-down assay from lysates; test: pull-down; traditional MT pull-down assay with AMP-PNP; lysates from HEK cells expressing Kif1 (1-365) with or without Dcx (amino acids 1-270); excess MTs

| fold increase of Kif1a-MT binding with Dcx in the presence of ADP, against a Dcx-negative control [1] [fold] | increase in binding of Kif1a to MTs with Dcx (amino acids 1-270) over control [2] [%] | Molecule |
| --- | --- | --- |
| 2 |  | porcine MTs (microtubules) (complex) |
|  | 15 to 20 | motor domain of Kif1 (amino acids 1-365) (domain or fragment) MAGASVKVAVRVRPFNSREMSRDSKCIIQMSGSTTTIVNPKQPKETPKSFSFDYSYWSHTSPEDINYASQKQVYRDIGEEMLQHAFEGYNVCIFAYGQTGAGKSYTMMGKQEKDQQGIIPQLCEDLFSRINDTTNDNMSYSVEVSYMEIYCERVRDLLNPKNKGNLRVREHPLLGPYVEDLSKLAVTSYNDIQDLMDSGNKARTVAATNMNETSSRSHAVFNIIFTQKRHDAETNITTEKVSKISLVDLAGSERADSTGAKGTRLKEGANINKSLTTLGKVISALAEMDSGPNKNKKKKKTDFIPYRDSVLTWLLRENLGGNSRTAMVAALSPADINYDETLSTLRYADRAKQIRCNAVINEDPN |
